Assay [1] deals with Aβ1-20 peptide. Description: solution-phase equilibrium titration, free antibody read by ELISA on ADDL-coated plate, GRAFIT fit. (In general: In an ELISA, binding on a coated surface is turned into a signal by an enzyme label.)
In assay [2] the target is Aβ1-40 monomer. The assay is described as above.
Assay [3] has as its target amyloid β-derived diffusible ligands (ADDLs), oligomers of Aβ1-42. The assay is described as above.
The target of assay [4] is fibrillar Aβ (Aβ1-42 fibrils). The description is as above.
In assay [5] the target is Aβ1-42 monomer. Description: ELISA, IgG2 antibodies.
Assay [6] addresses biotinylated ADDLs. Description: ELISA on coated antigen, chemiluminescence; antibody at 0 timepoint.
Assay [7] has as its target biotinylated ADDLs. The experiment in a line: ELISA on coated antigen, chemiluminescence; antibody stored 1 month at 4°.
Assay [8] has as its target biotinylated ADDLs. Description: ELISA on coated antigen, chemiluminescence; antibody stored 1 month at 25°.
Assay [9] concerns the target biotinylated ADDLs. The experiment in a line: ELISA on coated antigen, chemiluminescence; antibody stored 1 month at 40°.

Aβ1-20 peptide, sequence (peptide, as listed by the source): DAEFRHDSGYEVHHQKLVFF

The Kd is a measure of binding affinity in units of concentration. Higher therefore signals a looser complex. Consider WO-2 (antibody), for which the dissociation constant (Kd) in [1] was 19.3 nM; in assay [2] it was 6.15 nM; in assay [3], 0.57 nM; in [4] it was 1.15 nM.
Usually EC50 stands for the concentration giving half of the maximal effect. Turning to anti-ADDL antibody 19.3, the EC50 in [5] amounted to 18 nM; in [6], 1.1 nM; in assay [7], 1.7 nM; in assay [8] it was 2.1 nM; in [9], 5.9 nM.

These data come from patent publication US20130130288A1.
